Measured values from publication PMC8939769, “The SARS-CoV-2 monoclonal antibody combination, AZD7442, is protective in non-human primates and has an extended half-life in humans” (Science Translational Medicine, 2022).

Tests used:
[1] = biological target: T1, SARS-CoV-2 S trimer (S2P ectodomain protein) (SARS-CoV-2, ancestral (Wuhan-Hu-1 …, UniProt P0DTC2, stabilised)); experiment: cell-based or functional assay
[2] = biological target: T1, SARS-CoV-2 S trimer (S2P ectodomain …); experiment: not stated; binding kinetics (ka, kd, KD) on the SARS-CoV-2 S trimer (S2P ectodomain protein); representative of at least two independent assays; assay details in the Supplementary materials; details: both partners purified

B1: AZD8895 (tixagevimab) (antibody, V domains shown)
VH: QMQLVQSGPEVKKPGTSVKVSCKASGFTFMSSAVQWVRQARGQRLEWIGWIVIGSGNTNYAQKFQERVTITRDMSTSTAYMELSSLRSEDTAVYYCAAPYCSSISCNDGFDIWGQGTMVTVSS
VL: not shown
Question: With B1 as the binder, how does the “neutralization of the USA-WA1/2020 strain of SARS-CoV-2 in vitro, IC50” value [1] read?
Answer: Its value is 9 ng/mL.

Question: And the Kd [2]?
Answer: The Kd was 2.8 pM.
